Measured values reported in patent publication US20220153854A1 (Ablynx, published 2022).

Key:
human IL-13 = human IL-13 (human, UniProt P35225 35-146, limits assumed); assay: cell-based or functional assay
cyno IL-13 = cyno IL-13 (cynomolgus monkey, UniProt Q0PW92 21-132); assay: cell-based or functional assay
rhesus IL-13 [1] = biological target: T1, rhesus IL-13 (rhesus monkey, UniProt Q864V6 19-132, limits assumed); assay: cell-based or functional assay
human IL-4 = biological target: T2, human IL-4 (human, UniProt P05112 25-153); assay: SPR (ProteOn XPR36), cytokine immobilised by amine coupling
T2 construct: also called hIL-4
T2 sequence (looked up): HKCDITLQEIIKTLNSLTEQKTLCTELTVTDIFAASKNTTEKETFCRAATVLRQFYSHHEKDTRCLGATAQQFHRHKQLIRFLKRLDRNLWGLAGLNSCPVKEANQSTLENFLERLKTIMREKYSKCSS
Experimental: (§1) Absence of binding to OX40L and IL-13 related human cytokines was assessed via SPR (Proteon XPR36). As IL-13 related cytokine, IL-4 was assessed. As OX40L related targets, human TRAIL, CD30L, CD40L and RANKL were assessed.
(§2) To this end, the cytokines were immobilized on a ProteOn GLC sensor chip at 25 μg/mL for 600 s using amine coupling, with 80 seconds injection of EDC/NHS for activation and a 150-seconds injection of 1 M Ethanolamine HCl for deactivation (ProteOn Amine Coupling Kit. cat. 176-2410). Flow rate during activation and deactivation was set to 30 μl/min, and during ligand injection to 25 μl/min. The pH of the 10 mM acetate immobilization buffer was 6.0 for all cytokines, except for RANKL where the pH was 5.0.
(§3) Next, 1 μM of F027100187 was injected for 2 minutes and allowed to dissociate for 600 s at a flow rate of 45 μL/min. As running buffer PBS (pH7.4)+0.005% Tween 20 was used. As positive controls, 100 nM α-hIL-4, α-hTRAIL, α-hCD30L, α-hCD40L Ab and α-hRANKL VHH (Nanobody®, Nb) were injected. Interaction between F027100187 and the positive controls with the immobilized targets was measured by detection of increases in refractory index which occurs as a result of mass changes on the chip upon binding.

human TRAIL = biological target: T3, human TRAIL (human, UniProt P50591 114-281, limits assumed); assay: as above
T3 construct: also called hTRAIL
Experimental: as §1, §2, §3

human CD30L = biological target: T4, human CD30L (human, UniProt P32971 63-234, limits assumed); assay: as above
T4 construct: also called hCD30L
T4 sequence (looked up): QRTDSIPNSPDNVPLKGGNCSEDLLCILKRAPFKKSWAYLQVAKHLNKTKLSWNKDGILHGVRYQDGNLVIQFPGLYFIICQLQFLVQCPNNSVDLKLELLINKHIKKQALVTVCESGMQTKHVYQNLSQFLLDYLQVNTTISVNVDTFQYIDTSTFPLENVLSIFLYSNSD
Experimental: as §1, §2, §3

human CD40L = biological target: T5, human CD40L (human, UniProt P29965 113-261, limits assumed); assay: as above
T5 construct: also called hCD40L
T5 sequence (looked up): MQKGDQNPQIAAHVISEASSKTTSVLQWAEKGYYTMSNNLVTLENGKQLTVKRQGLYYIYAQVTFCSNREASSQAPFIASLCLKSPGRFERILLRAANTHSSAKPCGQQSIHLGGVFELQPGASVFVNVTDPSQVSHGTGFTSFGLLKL
Experimental: as §1, §2, §3

human RANKL = biological target: T6, human RANKL (human, UniProt O14788 140-317, limits assumed); assay: as above
T6 construct: also called hRANKL
T6 sequence (looked up): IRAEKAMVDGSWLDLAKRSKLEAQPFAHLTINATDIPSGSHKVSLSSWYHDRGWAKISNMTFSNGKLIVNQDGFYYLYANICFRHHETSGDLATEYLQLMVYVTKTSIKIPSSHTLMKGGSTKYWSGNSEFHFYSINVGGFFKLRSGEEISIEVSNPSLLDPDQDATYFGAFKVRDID
Experimental: as §1, §2, §3

human serum albumin = biological target: T7, human serum albumin (human, UniProt P02768 25-609); assay: Gyrolab in-solution affinity, 2 h incubation; 95% CI 7.7-9.0 nM
T7 construct: also called HSA; HAS
Experimental: (§4) Under receptor-controlled measurements a serial dilution of OX40L (ranging from 1.3 μM-0.031 μM), IL-13 (ranging from 0.1 μM-0.25 fM), or serum albumin (ranging from 100 μM-3.2 μM) and a fixed amount of ISVD construct F027100187 (5 nM in case of OX40L, […] in case of IL-13 and 30 nM in case of HSA and cyno SA) were mixed to allow interaction and incubated for either 24 or 48 hours (in case of OX40L and IL-13) or 2 hours (in case of serum albumin) to reach equilibrium.
(§5) Biotinylated human OX40L/IL-13/serum albumin was captured in the microstructures of a Gyrolab Bioaffy 1000 CD, which contains columns of beads and was used as a molecular probe to capture free F027100187 from the equilibrated solution. The mixture of OX40L/IL13/serum albumin and F027100187 (containing free OX40UIL-13/serum albumin, free F027100187 and OX40L/IL13/serum albumin—F027100187 complexes) was allowed to flow through the beads, and a small percentage of free F027100187 was captured, which is proportional to the free ISVD construct concentration. A fluorescently labeled anti-ISVD antibody, ABH0086-Alexa647, was then injected to label any captured F027100187 and after rinsing away excess of fluorescent probe, the change in fluorescence was determined. Fitting of the dilution series was done using Gyrolab Analysis software, where KD- and receptor-controlled curves were analyzed to determine the KD value.

cyno serum albumin = biological target: T8, cyno serum albumin (cynomolgus monkey); assay: Gyrolab in-solution affinity, 2 h incubation; 95% CI 9.7-10.7 nM
T8 construct: also called cyno SA; cynomolgus monkey serum albumin
Experimental: as §4, §5

cyno OX40L = biological target: T9, cyno OX40L (cynomolgus monkey, UniProt G7NVH7 51-183); assay: Gyrolab in-solution affinity, 48 h incubation; 95% CI 225-326 pM
T9 construct: also called cyOX40L; cynomolgus monkey OX40L
T9 sequence: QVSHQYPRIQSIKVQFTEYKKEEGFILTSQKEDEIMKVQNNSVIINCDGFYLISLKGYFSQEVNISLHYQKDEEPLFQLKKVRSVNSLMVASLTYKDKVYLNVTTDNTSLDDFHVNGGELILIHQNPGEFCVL
Experimental: as §4, §5

rhesus IL-13 [2] = biological target: T1, rhesus IL-13; assay: Gyrolab in-solution affinity, 48 h incubation; 95% CI 6.8-39.6 pM
Experimental: as §4, §5

T1 sequence (Q864V6 19-132 limits assumed): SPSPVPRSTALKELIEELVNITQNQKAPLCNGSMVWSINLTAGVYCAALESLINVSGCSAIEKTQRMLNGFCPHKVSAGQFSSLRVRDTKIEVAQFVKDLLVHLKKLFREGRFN
T8 sequence (A2V9Z4 25-608): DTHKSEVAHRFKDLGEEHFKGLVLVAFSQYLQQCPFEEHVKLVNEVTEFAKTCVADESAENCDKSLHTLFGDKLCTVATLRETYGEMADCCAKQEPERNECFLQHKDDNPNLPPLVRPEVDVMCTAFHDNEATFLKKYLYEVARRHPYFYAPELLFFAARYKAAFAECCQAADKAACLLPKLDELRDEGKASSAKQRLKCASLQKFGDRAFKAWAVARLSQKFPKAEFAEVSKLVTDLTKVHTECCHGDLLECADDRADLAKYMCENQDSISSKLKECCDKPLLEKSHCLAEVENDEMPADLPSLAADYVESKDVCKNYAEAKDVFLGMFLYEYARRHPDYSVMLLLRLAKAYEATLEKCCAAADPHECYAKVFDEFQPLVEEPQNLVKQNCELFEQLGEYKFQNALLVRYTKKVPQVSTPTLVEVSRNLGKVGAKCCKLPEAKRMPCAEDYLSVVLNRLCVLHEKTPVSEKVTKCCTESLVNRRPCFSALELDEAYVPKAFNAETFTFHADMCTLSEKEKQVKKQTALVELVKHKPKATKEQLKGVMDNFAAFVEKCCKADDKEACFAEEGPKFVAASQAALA
T7 sequence (P02768 25-609 limits assumed): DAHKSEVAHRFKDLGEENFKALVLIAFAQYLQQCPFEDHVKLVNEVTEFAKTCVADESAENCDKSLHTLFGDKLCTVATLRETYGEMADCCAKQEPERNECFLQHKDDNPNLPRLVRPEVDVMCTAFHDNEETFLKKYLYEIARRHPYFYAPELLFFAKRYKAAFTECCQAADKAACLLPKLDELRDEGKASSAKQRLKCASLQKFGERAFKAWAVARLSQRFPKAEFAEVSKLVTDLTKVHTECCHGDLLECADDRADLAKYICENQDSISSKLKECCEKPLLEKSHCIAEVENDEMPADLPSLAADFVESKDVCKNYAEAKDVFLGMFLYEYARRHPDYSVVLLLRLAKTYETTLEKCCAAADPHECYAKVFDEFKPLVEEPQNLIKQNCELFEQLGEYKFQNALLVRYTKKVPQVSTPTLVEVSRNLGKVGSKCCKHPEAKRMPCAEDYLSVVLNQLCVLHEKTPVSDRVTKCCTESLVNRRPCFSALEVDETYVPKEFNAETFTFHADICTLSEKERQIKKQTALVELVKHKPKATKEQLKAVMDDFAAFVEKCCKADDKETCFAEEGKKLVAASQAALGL
Sequence of cyno IL-13 (Q0PW92 entry or part of it): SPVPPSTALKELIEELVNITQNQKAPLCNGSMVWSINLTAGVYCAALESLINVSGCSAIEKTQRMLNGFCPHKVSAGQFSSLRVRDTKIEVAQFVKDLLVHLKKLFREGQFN
Sequence of human IL-13 (P35225 35-146 limits assumed): as the sequence (Q0PW92 entry or part of it) above, with S1G, K10R, V42M, N67S, R83H, V100L counted along it
T3 sequence (P50591 114-281 limits assumed): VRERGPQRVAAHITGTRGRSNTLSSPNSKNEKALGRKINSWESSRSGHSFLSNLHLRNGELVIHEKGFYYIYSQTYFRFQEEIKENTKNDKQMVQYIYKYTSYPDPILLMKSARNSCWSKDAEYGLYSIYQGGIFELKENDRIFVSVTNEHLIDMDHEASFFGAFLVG

B1: ISVD construct F027100187 (other)
chain: DVQLVESGGGVVQPGGSLRLSCAASRSIGRYDRMGWYRHRPGEPRELVATITGGSSINYGDSVKGRFTISIDNSKNTVYLQMNSLRPEDTALYYCNFNKYQISRDTWGQGTLVTVSSGGGGSGGGSEVQLVESGGGVVQPGGSLRLSCAASGRTFSSYRMGWFRQAPGKEREFVAALSGDGYSTYTANSVKGRFTISRDNSKNTVYLQMNSLRPEDTALYYCAAKLQYVSGWSYDYPYWGQGTLVTVSSGGGGSGGGSEVQLVESGGGVVQPGGSLRLSCAASGFTFRSFGMSWVRQAPGKGPEWVSSISGSGSDTLYADSVKGRFTISRDNSKNTLYLQMNSLRPEDTALYYCTIGGSLSRSSQGTLVTVSSGGGGSGGGSEVQLVESGGGVVQPGGSLRLSCAASGFTFNNYAMKWVRQAPGKGLEWVSSITTGGGSTDYADSVKGRFTISRDNSKNTLYLQMNSLRPEDTALYYCANVPFGYYSEHFSGLSFDYRGQGTLVTVSSA
notes: Tetravalent, trispecific single-chain construct of four VHH (ISVD) domains: one against OX40L, two against IL-13, one against serum albumin; also called F0271000187; F27100187
Human IL-13
  eotaxin release assay (IC50, pM): 259 pM
Cyno IL-13
  eotaxin release assay (IC50, pM): 1940 pM
Rhesus IL-13 [1]
  eotaxin release assay (IC50, pM): 858 pM
Human IL-4
  binding result: no binding (tested: 1 µM)
Human TRAIL
  binding result: no binding (tested: 1 µM)
Human CD30L
  binding result: no binding (tested: 1 µM)
Human CD40L
  binding result: no binding (tested: 1 µM)
Human RANKL
  binding result: no binding (tested: 1 µM)
Human serum albumin
  Kd: 8.3 nM
Cyno serum albumin
  Kd: 10.2 nM
Cyno OX40L
  Kd: 0.275 nM
Rhesus IL-13 [2]
  Kd: 0.0232 nM
